Data as given in article PMC3836179 (Nature chemical biology, 2013).

B1: antitoxin domain of Phd (residues 52-73) (peptide)
chain: LDAEFASLFDTLDSTNKELVNR
B2: Phd^52-73 (domain or fragment)
chain: LDAEFASLFDTLDSTNKELVNR

Experiments:
[1] = biological target: T1, Doc (wild type), toxin of the doc/phd toxin/antitoxin module (UniProt Q06259 1-126); assay: ITC
T1 sequence: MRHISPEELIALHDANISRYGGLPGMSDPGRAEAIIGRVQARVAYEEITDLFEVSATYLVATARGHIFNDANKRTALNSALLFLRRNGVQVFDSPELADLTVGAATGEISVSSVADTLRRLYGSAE

Doc = biological target: T2, Doc (UniProt Q06259 1-126); assay: ITC
T2 sequence: T1 sequence

| Binder | binding result [1] | binding result (Doc) |
| --- | --- | --- |
| B1 | binds | – |
| B2 | – | binds |
